The target in assay [1] is T1, CD20 KDD mutant (human, UniProt P11836 1-297).
T1 construct: whole, on cells; Transiently expressed in HEK293F cells; also called T159K/N163D/N166D
T1 sequence (looked up): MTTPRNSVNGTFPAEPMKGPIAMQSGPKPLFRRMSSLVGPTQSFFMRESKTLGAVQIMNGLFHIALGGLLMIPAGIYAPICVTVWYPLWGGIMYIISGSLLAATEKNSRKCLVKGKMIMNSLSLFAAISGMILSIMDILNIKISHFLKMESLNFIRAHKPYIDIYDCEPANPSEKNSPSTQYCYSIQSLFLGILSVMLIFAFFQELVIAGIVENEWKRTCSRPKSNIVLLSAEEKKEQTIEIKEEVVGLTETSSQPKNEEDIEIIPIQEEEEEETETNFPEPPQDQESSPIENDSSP
In words: flow cytometry, HEK293F transfectants, MFI mutant/MFI wt at 10 µg/mL. How it is done:
(§1) As a secondary antibody, R-Phycoerythrin (PE)-conjugated goat-anti-human IgG F(ab′)₂ was used, as described supra. Next, cells were washed once in staining buffer, re-suspended in 150 μL staining buffer and analyzed on a flow cytometer (FACSCanto-720, Becton Dickinson, San Diego, Calif., USA) and 10,000 events per sample were acquired at high flow rate. Binding curves were analyzed using non-linear regression (sigmoidal dose-response with variable slope) using GraphPad Prism V75.04 software (GraphPad Software, San Diego, Calif., USA).
(§2) Numbers indicate the percentage of binding to the CD20 mutants, relative to binding to wild type CD20, at 10 μg/mL. The percentage of binding was calculated by the following formula: (MFI binding to CD20 mutant)/(MFI binding CD20 wt) × 100%

Assay [2] addresses T2, CD20-AxP (human, UniProt P11836 1-297).
T2 construct: whole, on cells; Transiently expressed in HEK293F cells; also called AxP mutant; CD20 mutant (CD20-AxP)
T2 sequence (looked up): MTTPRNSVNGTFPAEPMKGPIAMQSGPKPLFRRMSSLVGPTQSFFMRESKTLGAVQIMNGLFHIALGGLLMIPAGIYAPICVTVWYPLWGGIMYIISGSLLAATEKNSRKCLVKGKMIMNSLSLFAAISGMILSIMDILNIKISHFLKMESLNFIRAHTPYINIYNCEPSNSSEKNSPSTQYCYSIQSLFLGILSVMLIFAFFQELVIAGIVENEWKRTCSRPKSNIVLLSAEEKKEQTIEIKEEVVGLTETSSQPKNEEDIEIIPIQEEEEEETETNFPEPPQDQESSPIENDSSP
The description is as above. How it is done:
as §1, §2

In assay [3] the target is T2, CD20-AxP. Briefly: flow cytometry on HEK293F cells transiently expressing CD20-AxP (A170S/P172S); PE-conjugated goat anti-human IgG F(ab')2; MFI. How it is done:
(§3) PCR was performed on a Tgradient Thermocycler 96 (Biometra) using a 35 cycle program of: +95° C. for 15 min, followed by 35 cycles of: +94° C. for 30 sec, anneal: 55° C. for 30 sec and extension: +72° C. for 2 min, followed by a final extension step at 72° C. for 10 min and subsequent storage at 4° C. The completed reactions were analyzed by agarose gel electrophoresis. See Table 11 for details of primer pairs used for colony PCR. DNA sequencing: Plasmid DNA samples were send to AGOWA (Berlin, Germany) for sequence analysis. Sequences were analyzed using the VectorNTI software package (Informax, Frederick, Md., USA).
(§4) Mutagenesis: The mutagenesis was performed, using the QuikChange® XL Site-Directed Mutagenesis kit (Cat 200517-5, Lot 1120630, Stratagene Europe) according to the manufacturer's instructions. Mutagenesis reactions were concentrated using ethanol precipitation and transformed into either oneshot DH5α-TIR competent E. coli cells or electroporated into ElectroTen-Blue® Electroporation-Competent Cells. Colonies were checked by colony PCR and restriction digestion prior to transfection. […] Anti-CD20 Antibody binding: HEK293F cells were taken up in staining buffer (PBS supplemented with 0.1% BSA and 0.02% NaN₃) and added to round bottom plates (1-3×10⁵/well in 100 μL). […] After washing twice in staining buffer, cells were incubated in 50 μL secondary antibody at 4° C. for 30 min. As a secondary antibody, R-Phycoerythrin (PE)-conjugated goat-anti-human IgG F(ab′)₂ was used, as described supra. Next, cells were washed once in staining buffer, re-suspended in 150 μL staining buffer and analyzed on a flow cytometer (FACSCanto-720, Becton Dickinson, San Diego, Calif., USA) and 10,000 events per sample were acquired at high flow rate. Binding curves were analyzed using non-linear regression (sigmoidal dose-response with variable slope) using GraphPad Prism V75.04 software (GraphPad Software, San Diego, Calif., USA).

Assay [4] concerns the target T3, human CD20 (human, UniProt P11836 1-297).
T3 construct: whole, on cells; On Daudi and other human B cell lines, on human B cells in blood, or transiently expressed in HEK293F cells (construct pEE12.4CD20HS-GA); also called wild type CD20; WT CD20
T3 sequence (looked up): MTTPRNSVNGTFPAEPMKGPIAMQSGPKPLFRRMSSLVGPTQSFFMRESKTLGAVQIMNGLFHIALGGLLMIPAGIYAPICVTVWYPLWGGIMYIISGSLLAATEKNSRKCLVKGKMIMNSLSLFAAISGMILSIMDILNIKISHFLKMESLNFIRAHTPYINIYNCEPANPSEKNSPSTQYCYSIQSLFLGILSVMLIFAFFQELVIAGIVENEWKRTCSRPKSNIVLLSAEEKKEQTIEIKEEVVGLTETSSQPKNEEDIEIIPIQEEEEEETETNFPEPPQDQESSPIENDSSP
Briefly: flow cytometry on HEK293F cells transiently expressing wild type CD20; PE-conjugated goat anti-human IgG F(ab')2; MFI. Here is the method:
as §3, §4

In assay [5] the target is T3, human CD20. In words: flow cytometry on Daudi cells (CD20-positive, CD3-negative); PE-conjugated goat anti-human IgG F(ab')2; median FI (PE). How it is done:
(§5) In addition to the non-activating mutations, L234F, L235E, D265A, on both arms, the bispecific antibody contained an F405L mutation on one arm and a K409R mutation on the other arm.
(§6) Cells (1×10⁵ cells/well) were incubated in polystyrene 96-well round-bottom plates (Greiner bio-one, cat. no. 650101) with serial dilutions of antibodies (range 0.041 to 30 μg/mL in 3-fold dilution steps [A-E] and 0.00061 to 10 μg/mL in 4-fold dilution steps [F-I]) in 100 μL PBS/0.1% BSA/0.02% azide (from here designated as staining buffer) at 4° C. for 30 min.
(§7) After washing twice in staining buffer, cells were incubated in 50 μL secondary antibody at 4° C. for 30 min. As a secondary antibody, R-Phycoerythrin (PE)-conjugated goat-anti-human IgG F(ab′)₂ (cat. no. 109-116-098, Jackson ImmunoResearch Laboratories, Inc., West Grove, Pa.) diluted 1:200 in staining buffer, was used for all experiments. Next, cells were washed twice in staining buffer, re-suspended in 30 μL staining buffer and analyzed on an iQue screener (Intellicyt Corporation, USA) (for FIG. 1A-E) or re-suspended in 100 μL staining buffer and analyzed on a FACSCANTOII (BD Biosciences) (FIG. 1F-I). Binding curves were analyzed using non-linear regression (sigmoidal dose-response with variable slope) using GraphPad Prism V75.04 software (GraphPad Software, San Diego, Calif., USA).

Assay [6] concerns the target T1, CD20 KDD mutant. Briefly: flow cytometry, HEK293F cells expressing CD20 KDD mutant. How it is done: as §3, §4
The target in assay [7] is T4, human CD3 (human, UniProt P07766 22-207).
T4 construct: CD3 as part of the TCR complex on Jurkat cells or human T cells; also called human CD3ε (epsilon)
Briefly: flow cytometry on Jurkat cells (CD3-positive, CD20-negative); PE-conjugated goat anti-human IgG F(ab')2; median FI (PE). Here is the method:
as §5, §6, §7

T4 sequence (P07766 22-207 limits assumed): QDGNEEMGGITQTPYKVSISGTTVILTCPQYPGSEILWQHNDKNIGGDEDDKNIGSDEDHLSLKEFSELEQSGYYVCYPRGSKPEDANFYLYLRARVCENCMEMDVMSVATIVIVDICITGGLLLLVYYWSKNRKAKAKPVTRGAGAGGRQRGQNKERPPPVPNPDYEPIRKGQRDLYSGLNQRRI

B1: bsIgG1-huCLB-T3/4-FEALxCD20-7D8-FEAR (bispecific antibody)
heavy 1: EVQLVESGGGLVKPGGSLRLSCAASGFTFSSYGMFWVRQAPGKGLEWVATISRYSRYIYYPDSVKGRFTISRDNAKNSLYLQMNSLRAEDTAVYYCARRPLYGSSPDYWGQGTLVTVSSASTKGPSVFPLAPSSKSTSGGTAALGCLVKDYFPEPVTVSWNSGALTSGVHTFPAVLQSSGLYSLSSVVTVPSSSLGTQTYICNVNHKPSNTKVDKRVEPKSCDKTHTCPPCPAPEFEGGPSVFLFPPKPKDTLMISRTPEVTCVVVAVSHEDPEVKFNWYVDGVEVHNAKTKPREEQYNSTYRVVSVLTVLHQDWLNGKEYKCKVSNKALPAPIEKTISKAKGQPREPQVYTLPPSREEMTKNQVSLTCLVKGFYPSDIAVEWESNGQPENNYKTTPPVLDSDGSFLLYSKLTVDKSRWQQGNVFSCSVMHEALHNHYTQKSLSLSPGK
VL 1: EIVLTQSPATLSLSPGERATLSCSASSSVTYVHWYQQKPGQAPRLLIYDTSKLASGIPARFSGSGSGTDFTLTISSLEPEDFAVYYCFQGSGYPLTFGSGTKLEMR
heavy 2: EVQLVESGGGLVQPDRSLRLSCAASGFTFHDYAMHWVRQAPGKGLEWVSTISWNSGTIGYADSVKGRFTISRDNAKNSLYLQMNSLRAEDTALYYCAKDIQYGNYYYGMDVWGQGTTVTVSSASTKGPSVFPLAPSSKSTSGGTAALGCLVKDYFPEPVTVSWNSGALTSGVHTFPAVLQSSGLYSLSSVVTVPSSSLGTQTYICNVNHKPSNTKVDKRVEPKSCDKTHTCPPCPAPEFEGGPSVFLFPPKPKDTLMISRTPEVTCVVVAVSHEDPEVKFNWYVDGVEVHNAKTKPREEQYNSTYRVVSVLTVLHQDWLNGKEYKCKVSNKALPAPIEKTISKAKGQPREPQVYTLPPSREEMTKNQVSLTCLVKGFYPSDIAVEWESNGQPENNYKTTPPVLDSDGSFFLYSRLTVDKSRWQQGNVFSCSVMHEALHNHYTQKSLSLSPGK
VL 2: EIVLTQSPATLSLSPGERATLSCRASQSVSSYLAWYQQKPGQAPRLLIYDASNRATGIPARFSGSGSGTDFTLTISSLEPEDFAVYYCQQRSNWPITFGQGTRLEIK
notes: also called huCLB-T3/4x7D8; bsIgG1-huCLB-3/4-FEALxCD20-7D8-FEAR
Turning to B1, the “% of wt CD20 binding” value in assay [1] was 3%; in assay [2], 113%. Besides, the 50% effective concentration (EC50 (read off the curve)) is around 0.2 µg/mL in assay [3], around 0.1 µg/mL in assay [4], around 0.8 µg/mL in assay [5] and around 0.1 µg/mL in assay [7]. Also, the binding result in assay [6] was “no binding (tested: 0.0015-10 µg/mL)”.

B2: bsIgG1-huCLB-T3/4-FEALxCD20-11B8-FEAR (bispecific antibody)
heavy 1: EVQLVESGGGLVKPGGSLRLSCAASGFTFSSYGMFWVRQAPGKGLEWVATISRYSRYIYYPDSVKGRFTISRDNAKNSLYLQMNSLRAEDTAVYYCARRPLYGSSPDYWGQGTLVTVSSASTKGPSVFPLAPSSKSTSGGTAALGCLVKDYFPEPVTVSWNSGALTSGVHTFPAVLQSSGLYSLSSVVTVPSSSLGTQTYICNVNHKPSNTKVDKRVEPKSCDKTHTCPPCPAPEFEGGPSVFLFPPKPKDTLMISRTPEVTCVVVAVSHEDPEVKFNWYVDGVEVHNAKTKPREEQYNSTYRVVSVLTVLHQDWLNGKEYKCKVSNKALPAPIEKTISKAKGQPREPQVYTLPPSREEMTKNQVSLTCLVKGFYPSDIAVEWESNGQPENNYKTTPPVLDSDGSFLLYSKLTVDKSRWQQGNVFSCSVMHEALHNHYTQKSLSLSPGK
VL 1: EIVLTQSPATLSLSPGERATLSCSASSSVTYVHWYQQKPGQAPRLLIYDTSKLASGIPARFSGSGSGTDFTLTISSLEPEDFAVYYCFQGSGYPLTFGSGTKLEMR
heavy 2: EVQLVQSGGGLVHPGGSLRLSCTGSGFTFSYHAMHWVRQAPGKGLEWVSIIGTGGVTYYADSVKGRFTISRDNVKNSLYLQMNSLRAEDMAVYYCARDYYGAGSFYDGLYGMDVWGQGTTVTVSSASTKGPSVFPLAPSSKSTSGGTAALGCLVKDYFPEPVTVSWNSGALTSGVHTFPAVLQSSGLYSLSSVVTVPSSSLGTQTYICNVNHKPSNTKVDKRVEPKSCDKTHTCPPCPAPEFEGGPSVFLFPPKPKDTLMISRTPEVTCVVVAVSHEDPEVKFNWYVDGVEVHNAKTKPREEQYNSTYRVVSVLTVLHQDWLNGKEYKCKVSNKALPAPIEKTISKAKGQPREPQVYTLPPSREEMTKNQVSLTCLVKGFYPSDIAVEWESNGQPENNYKTTPPVLDSDGSFFLYSRLTVDKSRWQQGNVFSCSVMHEALHNHYTQKSLSLSPGK
VL 2: EIVLTQSPATLSLSPGERATLSCRASQSVSSYLAWYQQKPGQAPRLLIYDASNRATGIPARFSGSGSGTDFTLTISSLEPEDFAVYYCQQRSDWPLTFGGGTKVEIK
notes: also called huCLB-T3/4x11B8; bsIgG1-huCLB-3/4-FEALxCD20-11B8-FEAR
On to B2, for which the “% of wt CD20 binding” value is 54% in assay [1] and 118% in assay [2]. The 50% effective concentration (EC50 (read off the curve)) in assay [3] was around 0.3 µg/mL; in assay [4], around 0.1 µg/mL; in assay [7], around 0.06 µg/mL.

(Values after patent US20200199231A1 (Genmab, published 2020).)
